Source: IntAct's records for PubMed 20959446

B1: CMRF35-like molecule 6 (Homo sapiens), Q08708 (parent)
chain: MTARAWASWRSSALLLLLVPGYFPLSHPMTVAGPVGGSLSVQCRYEKEHRTLNKFWCRPPQILRCDKIVETKGSAGKRNGRVSIRDSPANLSFTVTLENLTEEDAGTYWCGVDTPWLRDFHDPIVEVEVSVFPAGTTTASSPQSSMGTSGPPTKLPVHTWPSVTRKDSPEPSPHPGSLFSNVRFLLLVLLELPLLLSMLGAVLWVNRPQRSSRSRQNWPKGENQ
B2: CMRF35-like molecule 6 (Homo sapiens), Q08708 (parent)
chain: B1 chain
partner: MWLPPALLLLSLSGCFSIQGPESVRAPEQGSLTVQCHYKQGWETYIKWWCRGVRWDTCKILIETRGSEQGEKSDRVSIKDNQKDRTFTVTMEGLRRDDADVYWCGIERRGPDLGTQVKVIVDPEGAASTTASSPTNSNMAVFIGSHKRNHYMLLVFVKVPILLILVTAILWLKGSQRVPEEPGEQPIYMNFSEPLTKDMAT
B3: CMRF35-like molecule 7 (Homo sapiens), A8K4G0 (parent)
chain: B2 partner
partner: B1 chain

Variants of: B1
Details: with fcerg_human FCER1G

Row | Variant | effect of a mutation on the interaction
1 | E191V | with no effect

Variants of: B2
Details: with clm7_human CD300LB, A8K4G0

Row | Variant | effect of a mutation on the interaction
2 | E191V | with no effect

Variants of: B3
Details: with clm6_human CD300C, Q08708

Row | Variant | effect of a mutation on the interaction
3 | C50G | with no effect
4 | W55G | with no effect
5 | E63S | with no effect
6 | W103G | with no effect
7 | D112M | with no effect
8 | K158L | with no effect
